Source: patent publication US20170015742A1 (published 2017)

Key:
Human VEGF-A 165 = molecular target: T1, Human VEGF-A 165 (human, UniProt P15692 207-395); test: SPR (Biacore), method of Example 1.1
T1 construct: also called hVEGF165
Method: (§1) Unreacted moieties on the biosensor surface were blocked with ethanolamine. For kinetic analysis, rate equations derived from the 1:1 Langmuir binding model were fitted simultaneously to multiple antigen injections (using global fit analysis) with the use of Scrubber 2 (BioLogic Software), Biacore Biaevaluation 4.0.1 software or Biacore T100 Evaluation software. Purified antibodies or DVD-Ig molecules were diluted in running buffer for capture across goat anti-human Fc reaction surfaces. Antibodies or DVD-Ig molecules to be captured as a ligand (1 μg/ml) were injected over reaction matrices at a flow rate of 10 μl/minute. During the assay, all measurements were referenced against the capture surface alone (i.e., with no captured antibody or DVD-Ig molecule). […] The equilibrium dissociation constant KD (M) of the reaction between antibodies and the target antigen was then calculated from the kinetic rate constants by the following formula: KD=Koff/Kₒₙ. Binding was recorded as a function of time and kinetic rate constants were calculated. In this assay, on-rates as fast as 10⁶M⁻¹s⁻¹ and off-rates as slow as 10⁻⁶ s⁻¹ could be measured.

Human PDGF-BB = molecular target: T2, Human PDGF-BB (human, UniProt P01127 82-190); test: SPR (Biacore), method of Example 1.1
T2 construct: also called hPDGF-BB
T2 sequence (P01127 82-190 limits assumed): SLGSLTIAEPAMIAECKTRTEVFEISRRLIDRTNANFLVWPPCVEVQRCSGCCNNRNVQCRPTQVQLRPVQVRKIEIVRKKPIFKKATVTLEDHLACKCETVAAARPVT
Method: as §1

T1 sequence (P15692 other isoform, or with tags, fused parts or gaps limits assumed): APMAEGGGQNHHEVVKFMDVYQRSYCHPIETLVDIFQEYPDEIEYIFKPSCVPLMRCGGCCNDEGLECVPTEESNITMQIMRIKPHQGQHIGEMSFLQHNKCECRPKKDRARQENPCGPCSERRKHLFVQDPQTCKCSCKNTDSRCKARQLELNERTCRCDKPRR

| Kd (Human VEGF-A 165) | Kd (Human PDGF-BB) | kon (Human PDGF-BB) | kon (Human VEGF-A 165) | Binder |
| --- | --- | --- | --- | --- |
| 31 nM | 0.0053 nM | 3.5e+07 M⁻¹ s⁻¹ | – | CODV018 (bispecific antibody, human IgG1, kappa, L234A L235A, Anti-human VEGF-A/anti-human PDGF-BB cross-over DVD-Ig (CO-DVD-Ig); also called PR-1571831) heavy: EFVLTQSPGTLSLSPGERATLSCERSSGDIGDSYVSWYQQKPGQAPRLVIYADDQRPSGIPDRFSGSGSGTDFTLTISRLEPEDFAVYYCQSYDINIDIVFGGGTKVEIKGGGSGGGDTVLTQSPATLSLSPGERATLSCRASESVSTHMHWYQQKPGQAPRLLIYGASNLESGVPARFSGSGSGTDFTLTISSLEPEDFAVYFCQQSWNDPFTFGQGTKLEIKGGGSGASTKGPSVFPLAPSSKSTSGGTAALGCLVKDYFPEPVTVSWNSGALTSGVHTFPAVLQSSGLYSLSSVVTVPSSSLGTQTYICNVNHKPSNTKVDKKVEPKSCDKTHTCPPCPAPEAAGGPSVFLFPPKPKDTLMISRTPEVTCVVVDVSHEDPEVKFNWYVDGVEVHNAKTKPREEQYNSTYRVVSVLTVLHQDWLNGKEYKCKVSNKALPAPIEKTISKAKGQPREPQVYTLPPSREEMTKNQVSLTCLVKGFYPSDIAVEWESNGQPENNYKTTPPVLDSDGSFFLYSKLTVDKSRWQQGNVFSCSVMHEALHNAYTQKSLSLSPGK light: EVQLVQSGSELKKPGASVKVSCKASGYTFTNYGMYWVRQAPGQGLEWMGWINTETGKPTYADDFKGRFVFSLDTSVSTAYLQISSLKAEDTAVYYCARTNYYYRSYIFYFDYWGQGTMVTVSSGEVTLRESGPALVKPTQTLTLTCTFSGFSLSTYGMGVGWIRQPPGKALEWLANIWWDDDKYYNPSLKNRLTISKDTSKNQVVLTMTNMDPVDTATYYCARIESIGTTYSFDYWGQGTMVTVSSGGRTVAAPSVFIFPPSDEQLKSGTASVVCLLNNFYPREAKVQWKVDNALQSGNSQESVTEQDSKDSTYSLSSTLTLSKADYEKHKVYACEVTHQGLSSPVTKSFNRGEC |
| 0.05 nM | 0.0044 nM | 3.9e+07 M⁻¹ s⁻¹ | 2.9e+06 M⁻¹ s⁻¹ | CODV019 (bispecific antibody, human IgG1, kappa, L234A L235A, Anti-human VEGF-A/anti-human PDGF-BB cross-over DVD-Ig (CO-DVD-Ig); also called PR-1571832) heavy: DTVLTQSPATLSLSPGERATLSCRASESVSTHMHWYQQKPGQAPRLLIYGASNLESGVPARFSGSGSGTDFTLTISSLEPEDFAVYFCQQSWNDPFTFGQGTKLEIKGGGSGGGGEVTLRESGPALVKPTQTLTLTCTFSGFSLSTYGMGVGWIRQPPGKALEWLANIWWDDDKYYNPSLKNRLTISKDTSKNQVVLTMTNMDPVDTATYYCARIESIGTTYSFDYWGQGTMVTVSSLGGCGGGSASTKGPSVFPLAPSSKSTSGGTAALGCLVKDYFPEPVTVSWNSGALTSGVHTFPAVLQSSGLYSLSSVVTVPSSSLGTQTYICNVNHKPSNTKVDKKVEPKSCDKTHTCPPCPAPEAAGGPSVFLFPPKPKDTLMISRTPEVTCVVVDVSHEDPEVKFNWYVDGVEVHNAKTKPREEQYNSTYRVVSVLTVLHQDWLNGKEYKCKVSNKALPAPIEKTISKAKGQPREPQVYTLPPSREEMTKNQVSLTCLVKGFYPSDIAVEWESNGQPENNYKTTPPVLDSDGSFFLYSKLTVDKSRWQQGNVFSCSVMHEALHNAYTQKSLSLSPGK light: EFVLTQSPGTLSLSPGERATLSCERSSGDIGDSYVSWYQQKPGQAPRLVIYADDQRPSGIPDRFSGSGSGTDFTLTISRLEPEDFAVYYCQSYDINIDIVFGGGTKVEIKGGGSGGGGEVQLVQSGSELKKPGASVKVSCKASGYTFTNYGMYWVRQAPGQGLEWMGWINTETGKPTYADDFKGRFVFSLDTSVSTAYLQISSLKAEDTAVYYCARTNYYYRSYIFYFDYWGQGTMVTVSSLGGCGGGSRTVAAPSVFIFPPSDEQLKSGTASVVCLLNNFYPREAKVQWKVDNALQSGNSQESVTEQDSKDSTYSLSSTLTLSKADYEKHKVYACEVTHQGLSSPVTKSFNRGEC |
| 57 nM | 0.0065 nM | 3e+07 M⁻¹ s⁻¹ | – | CODV017 (bispecific antibody, human IgG1, kappa, L234A L235A, Anti-human VEGF-A/anti-human PDGF-BB cross-over DVD-Ig (CO-DVD-Ig); also called PR-1571830) heavy: DTVLTQSPATLSLSPGERATLSCRASESVSTHMHWYQQKPGQAPRLLIYGASNLESGVPARFSGSGSGTDFTLTISSLEPEDFAVYFCQQSWNDPFTFGQGTKLEIKGGGSGGGEFVLTQSPGTLSLSPGERATLSCERSSGDIGDSYVSWYQQKPGQAPRLVIYADDQRPSGIPDRFSGSGSGTDFTLTISRLEPEDFAVYYCQSYDINIDIVFGGGTKVEIKGGGSGASTKGPSVFPLAPSSKSTSGGTAALGCLVKDYFPEPVTVSWNSGALTSGVHTFPAVLQSSGLYSLSSVVTVPSSSLGTQTYICNVNHKPSNTKVDKKVEPKSCDKTHTCPPCPAPEAAGGPSVFLFPPKPKDTLMISRTPEVTCVVVDVSHEDPEVKFNWYVDGVEVHNAKTKPREEQYNSTYRVVSVLTVLHQDWLNGKEYKCKVSNKALPAPIEKTISKAKGQPREPQVYTLPPSREEMTKNQVSLTCLVKGFYPSDIAVEWESNGQPENNYKTTPPVLDSDGSFFLYSKLTVDKSRWQQGNVFSCSVMHEALHNAYTQKSLSLSPGK light: EVTLRESGPALVKPTQTLTLTCTFSGFSLSTYGMGVGWIRQPPGKALEWLANIWWDDDKYYNPSLKNRLTISKDTSKNQVVLTMTNMDPVDTATYYCARIESIGTTYSFDYWGQGTMVTVSSGEVQLVQSGSELKKPGASVKVSCKASGYTFTNYGMYWVRQAPGQGLEWMGWINTETGKPTYADDFKGRFVFSLDTSVSTAYLQISSLKAEDTAVYYCARTNYYYRSYIFYFDYWGQGTMVTVSSGGRTVAAPSVFIFPPSDEQLKSGTASVVCLLNNFYPREAKVQWKVDNALQSGNSQESVTEQDSKDSTYSLSSTLTLSKADYEKHKVYACEVTHQGLSSPVTKSFNRGEC |
| 0.02 nM | 0.0025 nM | 4.6e+07 M⁻¹ s⁻¹ | 2.9e+06 M⁻¹ s⁻¹ | CODV016 (bispecific antibody, human IgG1, kappa, L234A L235A, Anti-human VEGF-A/anti-human PDGF-BB cross-over DVD-Ig (CO-DVD-Ig); also called PR-1571828) heavy: EVQLVQSGSELKKPGASVKVSCKASGYTFTNYGMYWVRQAPGQGLEWMGWINTETGKPTYADDFKGRFVFSLDTSVSTAYLQISSLKAEDTAVYYCARTNYYYRSYIFYFDYWGQGTMVTVSSGGGGSGGGEFVLTQSPGTLSLSPGERATLSCERSSGDIGDSYVSWYQQKPGQAPRLVIYADDQRPSGIPDRFSGSGSGTDFTLTISRLEPEDFAVYYCQSYDINIDIVFGGGTKVEIKGGGSGASTKGPSVFPLAPSSKSTSGGTAALGCLVKDYFPEPVTVSWNSGALTSGVHTFPAVLQSSGLYSLSSVVTVPSSSLGTQTYICNVNHKPSNTKVDKKVEPKSCDKTHTCPPCPAPEAAGGPSVFLFPPKPKDTLMISRTPEVTCVVVDVSHEDPEVKFNWYVDGVEVHNAKTKPREEQYNSTYRVVSVLTVLHQDWLNGKEYKCKVSNKALPAPIEKTISKAKGQPREPQVYTLPPSREEMTKNQVSLTCLVKGFYPSDIAVEWESNGQPENNYKTTPPVLDSDGSFFLYSKLTVDKSRWQQGNVFSCSVMHEALHNAYTQKSLSLSPGK light: EVTLRESGPALVKPTQTLTLTCTFSGFSLSTYGMGVGWIRQPPGKALEWLANIWWDDDKYYNPSLKNRLTISKDTSKNQVVLTMTNMDPVDTATYYCARIESIGTTYSFDYWGQGTMVTVSSGGGGSDTVLTQSPATLSLSPGERATLSCRASESVSTHMHWYQQKPGQAPRLLIYGASNLESGVPARFSGSGSGTDFTLTISSLEPEDFAVYFCQQSWNDPFTFGQGTKLEIKGGSRTVAAPSVFIFPPSDEQLKSGTASVVCLLNNFYPREAKVQWKVDNALQSGNSQESVTEQDSKDSTYSLSSTLTLSKADYEKHKVYACEVTHQGLSSPVTKSFNRGEC |
| 0.033 nM | 0.0035 nM | 4.6e+07 M⁻¹ s⁻¹ | 3.1e+06 M⁻¹ s⁻¹ | CODV020 (bispecific antibody, human IgG1, kappa, L234A L235A, Anti-human VEGF-A/anti-human PDGF-BB cross-over DVD-Ig (CO-DVD-Ig); also called PR-1571836) heavy: EFVLTQSPGTLSLSPGERATLSCERSSGDIGDSYVSWYQQKPGQAPRLVIYADDQRPSGIPDRFSGSGSGTDFTLTISRLEPEDFAVYYCQSYDINIDIVFGGGTKVEIKGGGSGGGGEVQLVQSGSELKKPGASVKVSCKASGYTFTNYGMYWVRQAPGQGLEWMGWINTETGKPTYADDFKGRFVFSLDTSVSTAYLQISSLKAEDTAVYYCARTNYYYRSYIFYFDYWGQGTMVTVSSLGGCGGGSASTKGPSVFPLAPSSKSTSGGTAALGCLVKDYFPEPVTVSWNSGALTSGVHTFPAVLQSSGLYSLSSVVTVPSSSLGTQTYICNVNHKPSNTKVDKKVEPKSCDKTHTCPPCPAPEAAGGPSVFLFPPKPKDTLMISRTPEVTCVVVDVSHEDPEVKFNWYVDGVEVHNAKTKPREEQYNSTYRVVSVLTVLHQDWLNGKEYKCKVSNKALPAPIEKTISKAKGQPREPQVYTLPPSREEMTKNQVSLTCLVKGFYPSDIAVEWESNGQPENNYKTTPPVLDSDGSFFLYSKLTVDKSRWQQGNVFSCSVMHEALHNAYTQKSLSLSPGK light: DTVLTQSPATLSLSPGERATLSCRASESVSTHMHWYQQKPGQAPRLLIYGASNLESGVPARFSGSGSGTDFTLTISSLEPEDFAVYFCQQSWNDPFTFGQGTKLEIKGGGSGGGGEVTLRESGPALVKPTQTLTLTCTFSGFSLSTYGMGVGWIRQPPGKALEWLANIWWDDDKYYNPSLKNRLTISKDTSKNQVVLTMTNMDPVDTATYYCARIESIGTTYSFDYWGQGTMVTVSSLGGCGGGSRTVAAPSVFIFPPSDEQLKSGTASVVCLLNNFYPREAKVQWKVDNALQSGNSQESVTEQDSKDSTYSLSSTLTLSKADYEKHKVYACEVTHQGLSSPVTKSFNRGEC |
